Measured values reported in the supplement of paper PMC12764529.
± gives the half width of the 95% confidence interval.

Assays:
[1] = folding stability dG unfold from trypsin proteolysis; higher = more stable
Summary of the method: (§1)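 Digests were run with trypsin and chymotrypsin at 11 concentrations in threefold dilutions, plus a no-protease condition, on designed mini-proteins in a PA-tagged cDNA display construct. The mini-proteins were under 80 residues, had no cysteine, and were kept only when AlphaFold2 dimer inter-PAE was above 15. After sequencing, Bayesian fitting of the counts gave K50, from which unfolding free energy was derived against a sequence-predicted unfolded-state K50 and a shared folded-state K50, per protease or combined.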

[2] = folding stability dG unfold from chymotrypsin proteolysis; higher = more stable
Summary of the method: as §1

[3] = folding stability dG unfold (combined trypsin and chymotrypsin); higher = more stable
Summary of the method: as §1

Sequence	folding stability dG unfold [1]	folding stability dG unfold [2]	folding stability dG unfold [3]
SAGGSAGGSAGVPEGEEYLFTVKVTLTFEPVTVKDENGEEHEIDEVTITVTVTVLVKAEDSAGGSAGGSAGG [r11_907_TrROS_Hall]	2.33 ± 0.35 kcal/mol	3.24 ± 0.12 kcal/mol	2.93 ± 0.24 kcal/mol
SMKLKLYDPATGKWYELTYDPAKGTVTITYPDGKVITRPVKSIEVNPETGTITITFPDSTETFTVPESLISA [r9_325_JUSTAS]	3.42 ± 0.089 kcal/mol	3.934 ± 0.031 kcal/mol	3.79 ± 0.066 kcal/mol
SAVPLELPLSDEELRELLEKHSVDSTITLTLKVGDRWVRVTVTLKEVKREPNRLSVSVELTVTPLPPEESAG [r14_335_JUSTAS]	2.86 ± 0.07 kcal/mol	4.08 ± 0.051 kcal/mol	3.81 ± 0.13 kcal/mol
SEEEIVEEPPPETRTLTLELVDPETGELVATITVSPDGTVTLTVRTPDGEEKTITVPEGMSLEEALAAALSA [r9_346_TrROS_Hall]	3.19 ± 0.21 kcal/mol	4.39 ± 0.24 kcal/mol	4.18 ± 0.45 kcal/mol
SEKVKITIEVWRPPGWWYVKIKLPDNGQEITYPFDSAEDFKEQIKKWLGLPPDNVKITDVEVYPMPPDDFSA [r9_909_TrROS]	1.82 ± 0.11 kcal/mol	3.14 ± 0.081 kcal/mol	2.52 ± 0.22 kcal/mol
SAGELTAEEIAERLRKLLEELGIEEVEVEVEEVEVEEEEEPVEEEEEEELSEEERERLRRERLEEEGLLSAG [r5_9_TrROS_Hall]	1.59 ± 0.073 kcal/mol	2.1 ± 0.037 kcal/mol	1.92 ± 0.12 kcal/mol
SAGGKLTLEEIKALLKEGKEYSLEELLKKIAELLNLTVELEEEPEKVTVVKVDPETGEIVEEKEIDLSAGGS [r8_105_TrROS_Hall]	2.01 ± 0.1 kcal/mol	2.44 ± 0.036 kcal/mol	2.28 ± 0.11 kcal/mol
SAEIPPDLIAVILGIEPYRFGERDFLVITAAIFRPEEPDAEVTLYTIVIEGDKIVSITPSRYRVPPEALSAG [r14_651_TrMRF]	2.92 ± 0.098 kcal/mol	3.86 ± 0.047 kcal/mol	3.55 ± 0.11 kcal/mol
SAGGSAGGSAGGKKKFGFLILVKNKDDEKLYLVEVPEELSLEEFLPDQEIDEEVIKKAIGSAGGSAGGSAGG [r17_412_TrMRF]	0.823 ± 0.082 kcal/mol	0.665 ± 0.27 kcal/mol	0.724 ± 0.18 kcal/mol
SAGGSPTIKLEILLPKEMTPEEVEALARELEEAGYEIVSIKVETVKDEDGREWVRVTITLRPKEDLSAGGSA [r2_442_TrROS_Hall]	3.21 ± 0.076 kcal/mol	3.97 ± 0.045 kcal/mol	3.73 ± 0.092 kcal/mol
SAGGSQEELAKQLAEELAKKEGLKEVKVSITPSPGPVLNITFEFYDENGNKKGVKSKTIPLPPDLLSAGGSA [r2_153_JUSTAS]	1.06 ± 0.11 kcal/mol	0.0811 ± 0.15 kcal/mol	0.515 ± 0.53 kcal/mol
SAGEIAEKLGFKVEDVSIQKEDGTYRIVVRFPMDDRPVVIMGDIKVEEKNGKRKIEIDIDIMPLPPDDPSAG [r5_516_TrROS]	1.89 ± 0.03 kcal/mol	1.57 ± 0.054 kcal/mol	1.7 ± 0.086 kcal/mol
SAGGSAGGSAGGKKIKIPKKVKVKVVKKKDGKLLVYLEKTGKVIELPVEDLKNITAEDLSAGGSAGGSAGGS [r10_709_TrROS_Hall]	0.976 ± 0.038 kcal/mol	-0.63 ± 0.3 kcal/mol	0.408 ± 0.094 kcal/mol
SAGSPVTLELRVTRPRADAATGAPATATETVTVTLPAAVVAAGLSPEEIARLLEAANPGATVELTAVASAGG [r19_110_JUSTAS]	0.844 ± 0.052 kcal/mol	0.259 ± 0.14 kcal/mol	0.582 ± 0.07 kcal/mol
SAGGSAGGSAMLRIKIYYKKNGEEYEIEVEGSLEEALKEAAKKLGLSEDEIKKIEIEELPESAGGSAGGSAG [r3_79_TrROS_Hall]	2.66 ± 0.12 kcal/mol	3.73 ± 0.086 kcal/mol	3.41 ± 0.2 kcal/mol
SAGGSAGGSAVRTIFIPGGNIKDIIELIKSDPGQPVQIHAPDGWVIKITGDKDIDIHPFPDSAGGSAGGSAG [r3_269_TrROS]	-0.44 ± 0.2 kcal/mol	0.337 ± 0.084 kcal/mol	0.216 ± 0.15 kcal/mol
SAGGSAGGSAGPVVISIPETNTLVVLAPLPDDRVLADVFQFDPTTPEPTVFTVPAENISFSAGGSAGGSAGG [r11_285_TrMRF]	0.76 ± 0.024 kcal/mol	0.335 ± 0.13 kcal/mol	0.565 ± 0.099 kcal/mol
SLTAEEAAANPELAARLLALPPVPPFPVELLFVNPETRAVLPAKATVYQFPNTWLVLFPENGAALPVPGGSA [r9_548_TrMRF]	0.71 ± 0.14 kcal/mol	1.26 ± 0.074 kcal/mol	1.1 ± 0.099 kcal/mol
SAGGDYVKIDFTVMIPTPEQAEEMAEEIKNFFRFMGIKEVKIKVQRNPNNGMYYVTVDIEIRMPPGAVSAGG [r19_92_TrROS]	3.34 ± 0.2 kcal/mol	5.12 ± 0.1 kcal/mol	4.82 ± 0.17 kcal/mol
SAGGSAGGSDPSEVRLTFTVTVELTFDAVLFYEPGTGRLVAVAPYLRVEVEVEVTLTFPADALSAGGSAGGS [r12_600_TrMRF]	3.17 ± 0.096 kcal/mol	5.04 ± 0.11 kcal/mol	4.63 ± 0.21 kcal/mol
